Results reported in article PMC11061317.

Molecular target: GST-tagged Rheb-G63V expressed in HEK293T (UniProt Q15382)
Test: GST pull-down and immunoblotting, band intensity quantified
Conditions: HEK293T cells, transient co-expression; mean ± SEM (n = 3); parent: est. 1.0; read off a plot

Chain of GST-tagged Rheb-G63V expressed in HEK293T (Q15382 whole entry G63V): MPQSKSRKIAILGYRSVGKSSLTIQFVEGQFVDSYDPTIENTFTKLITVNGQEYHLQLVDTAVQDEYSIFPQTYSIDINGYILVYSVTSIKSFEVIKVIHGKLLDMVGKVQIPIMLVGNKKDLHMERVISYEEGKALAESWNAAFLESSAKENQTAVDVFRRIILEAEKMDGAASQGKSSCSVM
Chain of SFB-tagged ATP6AP1 (wild type, full length) (Q15904 42-470 I469del/V470del): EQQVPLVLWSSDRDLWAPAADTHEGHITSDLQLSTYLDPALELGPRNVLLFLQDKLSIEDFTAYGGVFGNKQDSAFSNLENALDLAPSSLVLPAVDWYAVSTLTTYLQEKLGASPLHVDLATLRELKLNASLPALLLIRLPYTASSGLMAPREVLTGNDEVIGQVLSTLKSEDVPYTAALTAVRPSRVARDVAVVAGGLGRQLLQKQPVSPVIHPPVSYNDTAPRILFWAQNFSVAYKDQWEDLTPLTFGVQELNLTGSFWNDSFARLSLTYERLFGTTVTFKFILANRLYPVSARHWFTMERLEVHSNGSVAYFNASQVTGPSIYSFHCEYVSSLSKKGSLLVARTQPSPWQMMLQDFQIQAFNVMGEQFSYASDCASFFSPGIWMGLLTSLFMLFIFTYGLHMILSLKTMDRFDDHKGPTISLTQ

SFB-tagged ATP6AP1 (wild type, full length) (from UniProt Q15904) I469del; V470del
ratio to parent (relative to ATP6AP1): 0.77
